This test has as its target SARS-CoV-2 RBD (residues V320 to G550, strain Wuhan-Hu-1), C-terminal His tag (SARS-CoV-2, UniProt P0DTC2). As to the kind of experiment: BLI. Particulars: both partners purified.

B1: human-mouse chimeric antibody 3C1 (c3C1) (antibody, V domains shown)
VH: EVQLQESGPSLVKPSQTLSLTCSVTGDSITNGYWNWIRKFPGNKLEYMGYISYSGSTYYSPSLKSRISITRDTSKNQHYLQLNSVTSEDTATYYCASDYHGSKYYFDYWGQGTTLTVSS
VL: DIVMTQSHKFMSTSVGHRVSITCKASQDVGNDVAWYQQKPGQSPKLLIYWASTRHTGVPDRFTGSGSGTDFTLTISNVQSEDLADYFCQQYNRYPYTFGGGTKLEIK
notes: also called chimeric MAb c3C1
In general, Kd refers to the constant that tells how readily two partners part at equilibrium. A lower Kd goes with a tighter complex. B1: the dissociation constant Kd was < 1 pM.

The values are drawn from paper PMC7801428 (Nature Communications, 2021).
